The record followed here is patent US20250179204A1.

In general, EC50 (read off the curve) refers to the concentration needed to bring the measured effect to its halfway point. By Kd is commonly meant the free concentration of one partner at which half of the binding sites on the other are occupied at equilibrium, for simple one-to-one binding. Low readings indicate higher affinity, high ones lower affinity.

For experiment [1], the target named is recombinant mouse GITR (plate-bound) (mouse) (UniProt O35714). In words: ELISA, plate-bound recombinant mouse GITR, absorbance 450 nm against log(conc. ug/ml).
Chain of recombinant mouse GITR (plate-bound) (mouse) (O35714 20-153 limits assumed): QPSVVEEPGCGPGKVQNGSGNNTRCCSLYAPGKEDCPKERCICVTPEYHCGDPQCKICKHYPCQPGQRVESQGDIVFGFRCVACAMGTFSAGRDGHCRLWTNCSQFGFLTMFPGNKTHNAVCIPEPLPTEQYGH
The target of another experiment is huFcγRIIA R131 (human) (UniProt P12318). In words: SPR, Biacore T200. A general note: SPR reads the build-up and loss of mass on a sensor chip optically.
Chain of huFcγRIIA R131 (human) (P12318 36-218 H167R limits assumed): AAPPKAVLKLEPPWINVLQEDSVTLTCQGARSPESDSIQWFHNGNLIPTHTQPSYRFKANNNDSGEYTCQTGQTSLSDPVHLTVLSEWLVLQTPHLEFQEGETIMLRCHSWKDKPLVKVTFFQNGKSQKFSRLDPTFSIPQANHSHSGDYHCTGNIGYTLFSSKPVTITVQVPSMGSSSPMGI
Experiment [2] concerns the target human FcγRIIB (human) (UniProt P31994). The experiment in a line: ELISA, plate-bound human FcgRIIB soluble ectodomain, absorbance 450 nm against log(conc. ug/ml).
The target of the next experiment is huFcγRIIIA F158 (human) (UniProt P08637). In words: SPR, Biacore T200.
Chain of huFcγRIIIA F158 (human) (P08637 17-208 limits assumed): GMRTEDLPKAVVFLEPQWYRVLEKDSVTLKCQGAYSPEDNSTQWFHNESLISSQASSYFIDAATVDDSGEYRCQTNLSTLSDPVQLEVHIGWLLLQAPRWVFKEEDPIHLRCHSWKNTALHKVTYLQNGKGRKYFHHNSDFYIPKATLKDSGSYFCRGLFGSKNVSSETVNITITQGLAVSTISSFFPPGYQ
The target in experiment [3] is human FcγRIIB (human) (UniProt P31994). In words: SPR, Biacore T200.
Chain of human FcγRIIB (human) (P31994 43-217): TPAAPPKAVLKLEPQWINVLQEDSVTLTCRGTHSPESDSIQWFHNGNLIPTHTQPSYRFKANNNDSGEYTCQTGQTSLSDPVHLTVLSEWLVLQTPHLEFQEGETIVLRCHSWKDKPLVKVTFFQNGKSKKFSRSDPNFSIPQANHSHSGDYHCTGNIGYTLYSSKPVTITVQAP
The target of experiment [4] is human FcγRIIIA soluble ectodomain (ELISA) (human) (UniProt P08637). The experiment in a line: ELISA, plate-bound human FcgRIIIA soluble ectodomain, absorbance 450 nm against log(conc. ug/ml). In general terms: In an ELISA, binding on a coated surface is turned into a signal by an enzyme label.
Chain of human FcγRIIIA soluble ectodomain (ELISA) (human) (P08637 17-208): as the sequence (P08637 17-208 limits assumed) above
The target is the same in experiment [5]. The experiment in a line: ELISA, plate-bound human FcgRIIIA (receptor named in the legend paragraph 150, not on the sheet), absorbance 450 nm against log(conc. ug/ml).
The target in experiment [6] is recombinant mouse GITR (plate-bound) (mouse) (UniProt O35714). In words: ELISA, plate-bound mGITR, antibody at ˜10^3 µg/ml as printed.
Experiment [7] shares this target. The experiment in a line: ELISA, plate-bound mGITR, plateau from ˜10-1.5 µg/ml as printed.
Experiment [8] has the same target. In words: ELISA, plate-bound mouse GITR, delta OD against Log Ab con (ug/ml).

As to “chimeric anti-mouse GITR antibody (DTA-1 Fab) human IgG1-GAALIE”, the EC50 (read off the curve) in experiment [1] was found to be 0.02 µg/mL.

With “chimeric anti-mouse GITR antibody (DTA-1 Fab) human IgG1-V11”, in the experiment with huFcγRIIA R131 (human), the Kd stood at 3.84 µM. For the same substance, the half-maximal effective concentration (EC50 (read off the curve)) in [1] turned out to be 0.02 µg/mL; with human FcγRIIB (human) [2] it was 0.4 µg/mL.

Regarding “chimeric anti-mouse GITR antibody (DTA-1 Fab) human IgG1-N297A”, the concentration for a half-maximal effect (EC50 (read off the curve)) in experiment [1] is 0.02 µg/mL.

With “chimeric anti-mouse GITR antibody (DTA-1 Fab) human IgG1-GASDALIE”, the figures for the Fold = KD(IgG1)/KD(Fc region variant) in the experiment with huFcγRIIA R131 (human) and with human FcγRIIB (human) [3] were 24.5 fold and 14 fold, respectively. The Kd in the experiment with huFcγRIIA R131 (human) was determined as 0.05 µM; with huFcγRIIIA F158 (human), 2.23 µM; with human FcγRIIB (human) [3], 0.23 µM. The concentration for a half-maximal effect (EC50 (read off the curve)) in experiment [1] came out at 0.01 µg/mL; in experiment [4] it was 0.2 µg/mL.

With “chimeric anti-mouse GITR antibody (DTA-1 Fab) afucosylated human IgG1”, the Kd with huFcγRIIA R131 (human) is 1.16 µM; with huFcγRIIIA F158 (human) it was 0.58 µM. For the same substance, in [1], the 50% effective concentration (EC50 (read off the curve)) was 0.02 µg/mL.

Turning to “chimeric anti-mouse GITR antibody (DTA-1 Fab) human IgG1-G236A”, the dissociation constant (Kd) with huFcγRIIA R131 (human) was 0.12 µM; in the experiment with human FcγRIIB (human) [3], 4.38 µM. For the same substance, the concentration giving a half-maximal response (EC50 (read off the curve)) in [1] stood at 0.02 µg/mL.

Regarding “chimeric anti-mouse GITR antibody (DTA-1 Fab) afucosylated human IgG1-G236A”, the values for the EC50 (read off the curve) in experiment [1] and in experiment [5] were 0.01 µg/mL and 0.8 µg/mL, respectively.

As to “chimeric anti-mouse GITR antibody (DTA-1 Fab) with human IgG1”, the Fold = KD(IgG1)/KD(Fc region variant) with huFcγRIIA R131 (human) and in the experiment with huFcγRIIIA F158 (human) was 1 fold in each case. The Kd amounted to 1.16 µM with huFcγRIIA R131 (human), 6.7 µM with huFcγRIIIA F158 (human) and 3.01 µM with human FcγRIIB (human) [3]. In experiment [1], the EC50 (read off the curve) came out at 0.03 µg/mL.

“monospecific mIgG1-N297A anti-mouse GITR antibody (DTA-1 NA)”: in experiment [6], the OD450 was determined as 0.6 OD450. In addition, in [7], the OD450 at plateau is 0.9 OD450. Further, in experiment [8], the EC50 (read off the curve) is 0.004 µg/mL.
